In patent publication US20170022281A1 (AbbVie / Abbott, published 2017):

Assays:
[1] = biological target: T1, human PRLR (Biacore antigen) (human, UniProt P16471 25-234, limits assumed); experiment: SPR simultaneous binding; PRLR held by surface mAb chAb7
T1 construct: The construct injected over captured antibody is not described (a soluble form is likely); also called huPRLR
T1 sequence: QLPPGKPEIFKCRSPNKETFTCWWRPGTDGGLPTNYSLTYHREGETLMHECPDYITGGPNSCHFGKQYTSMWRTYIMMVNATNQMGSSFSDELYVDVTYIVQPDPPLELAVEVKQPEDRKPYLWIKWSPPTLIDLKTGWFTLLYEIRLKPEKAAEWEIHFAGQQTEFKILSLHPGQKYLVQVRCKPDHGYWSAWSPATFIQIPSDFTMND
Experimental: (§1) Running buffer was HBS-EP+ (10 mM Hepes, pH7.4, 150 mM NaCl, 3 mM EDTA, 0.05% surfactant). Assay was performed at 12° C. using Biacore T200 and CM5 sensor chips with anti-human IgG (Pierce) amine-coupled in all 4 flow cells to ˜2000 RU.
(§2) Separate test mAbs were captured in flowcells 2, 3 & 4 (flowcell 1 was reference, no test mAb). All 4 flowcells were then blocked by injection with isotype control mAb at 50 ug/ml. All 4 flowcells were then injected with antigen or buffer only (buffer only is for double referencing, done for each mAb pair individually). All 4 flowcells were then injected with 2nd test mAb at 10 ug/ml. All 4 flowcells were then regenerated with glycine, pH1.5.

[2] = biological target: T1, human PRLR (Biacore antigen); experiment: SPR simultaneous binding; PRLR held by surface mAb chAb5
Experimental: as §1, §2

[3] = biological target: T1, human PRLR (Biacore antigen); experiment: SPR simultaneous binding; PRLR held by surface mAb chAb6
Experimental: as §1, §2

[4] = biological target: T1, human PRLR (Biacore antigen); experiment: SPR simultaneous binding; PRLR held by surface mAb Ab48
Experimental: as §1, §2

[5] = biological target: T1, human PRLR (Biacore antigen); experiment: SPR simultaneous binding; PRLR held by surface mAb Ab21
Experimental: as §1, §2

[6] = biological target: T1, human PRLR (Biacore antigen); experiment: SPR simultaneous binding; PRLR held by surface mAb Ab49
Experimental: as §1, §2

[7] = biological target: T2, mouse PRLR on Baf3-mPRLR cells (mouse, UniProt Q08501 20-608); experiment: cell-based or functional assay
T2 sequence (looked up): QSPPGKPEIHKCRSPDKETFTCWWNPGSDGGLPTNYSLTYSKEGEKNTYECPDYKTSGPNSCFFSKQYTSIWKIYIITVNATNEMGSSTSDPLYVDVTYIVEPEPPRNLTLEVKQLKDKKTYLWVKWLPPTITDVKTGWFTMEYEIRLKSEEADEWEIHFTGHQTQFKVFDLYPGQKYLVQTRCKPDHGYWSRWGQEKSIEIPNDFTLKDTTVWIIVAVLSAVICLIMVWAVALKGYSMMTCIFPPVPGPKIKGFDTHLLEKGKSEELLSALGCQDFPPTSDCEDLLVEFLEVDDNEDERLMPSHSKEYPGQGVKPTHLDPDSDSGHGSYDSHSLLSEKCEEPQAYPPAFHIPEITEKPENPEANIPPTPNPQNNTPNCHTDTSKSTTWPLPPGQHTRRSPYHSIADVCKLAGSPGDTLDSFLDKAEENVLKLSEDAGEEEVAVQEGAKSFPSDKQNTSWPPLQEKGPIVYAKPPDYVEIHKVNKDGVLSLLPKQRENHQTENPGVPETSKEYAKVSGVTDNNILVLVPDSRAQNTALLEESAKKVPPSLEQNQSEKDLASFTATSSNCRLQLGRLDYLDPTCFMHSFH

[8] = biological target: T3, human PRLR ECD-Fc fusion protein (human, UniProt P16471 25-233); experiment: ELISA on ECD
T3 construct: not shown: Fc region (captured by goat anti-human Fc)
T3 sequence: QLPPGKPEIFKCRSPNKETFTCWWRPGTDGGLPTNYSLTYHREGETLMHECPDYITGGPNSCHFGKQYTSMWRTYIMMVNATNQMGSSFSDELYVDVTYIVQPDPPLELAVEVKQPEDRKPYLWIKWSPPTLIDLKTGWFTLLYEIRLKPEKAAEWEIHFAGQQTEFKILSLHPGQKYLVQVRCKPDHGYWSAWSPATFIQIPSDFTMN
In short: (§3)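 EC50 values derive from fitted binding curves of antibody serial dilutions (1 h) on captured PRLR. Detection used an HRP-conjugated secondary (1 h), TMB development for 3–5 min, an H₂SO₄ stop and a 450 nm read, with all steps in Tween/PBS pH 7.4 buffer.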

[9] = biological target: T4, cyno PRLR ECD-his6 protein (cyno); experiment: ELISA on ECD
T4 chain: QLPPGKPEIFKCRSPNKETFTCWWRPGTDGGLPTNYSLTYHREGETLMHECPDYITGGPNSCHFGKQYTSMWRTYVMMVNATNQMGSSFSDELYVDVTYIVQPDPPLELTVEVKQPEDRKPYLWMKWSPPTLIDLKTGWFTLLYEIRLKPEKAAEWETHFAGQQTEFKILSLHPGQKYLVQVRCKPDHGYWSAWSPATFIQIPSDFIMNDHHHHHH
In short: as §3

[10] = biological target: T1, human PRLR (Biacore antigen); experiment: SPR simultaneous binding; PRLR held by surface mAb Ab39
Experimental: as §1, §2

[11] = biological target: T1, human PRLR (Biacore antigen); experiment: SPR simultaneous binding; PRLR held by surface mAb chAb8
Experimental: as §1, §2

[12] = biological target: T1, human PRLR (Biacore antigen); experiment: SPR simultaneous binding; PRLR held by surface mAb Ab40
Experimental: as §1, §2

Row | Binder | solution mAb binding, % of PRLR binding [1] [%] | solution mAb binding, % of PRLR binding [2] [%] | solution mAb binding, % of PRLR binding [3] [%] | solution mAb binding, % of PRLR binding [4] [%] | solution mAb binding, % of PRLR binding [5] [%] | solution mAb binding, % of PRLR binding [6] [%] | Baf3-mPRLR proliferation IC50 [7] [µg/mL] | EC50 [8] [pM] | EC50 [9] [pM] | solution mAb binding, % of PRLR binding [10] [%] | solution mAb binding, % of PRLR binding [11] [%] | solution mAb binding, % of PRLR binding [12] [%]
1 | chAb7 (antibody, human IgG1, kappa, V domains shown, chimeric, murine variable and human G1/kappa constant regions) VH: QVQLQQPGAELVMPGTSVKLSCKASGYTFTSYWIHWVKQRPGQGLEWIGEIDPSDSYTNYNQKFKGKATLTVDRSSSTAYMQLSSLTSEDSAVYYCGRSFFTNWFAYWGQGTLVTVSA VL: DVVMTQTPLSLPVSLGDQASISCRSSQSLVHSNGNTYLHWYLQKPGQSPKLLIYKVSNRFSGVPDRFSGSGSGTDFTLKINRVEAEDLGVYFCSQSTHVPFTFGSGTKLEIKT | 0 | -1 | -1 | 1 | -1 | 2 | 3.6 | 151 | 118 | -2 | 2 | -2
2 | Ab19 (antibody, human IgG1, kappa, V domains shown, humanized from Ab6; G1; also called Ab1 HC.1a and Ab1 LC.1a) VH: EVQLVQSGAEVKKPGSSVKVSCKASGYTFTTYWMHWVRQAPGQGLEWIGEIDPSDSYSNYNQKFKDRATLTVDKSTSTAYMELSSLRSEDTAVYYCARNGGLGPAWFSYWGQGTLVTVSS VL: DIQMTQSPSSVSASVGDRVTITCKASQYVGTAVAWYQQKPGKSPKLLIYSASNRYTGVPSRFSDSGSGTDFTLTISSLQPEDFATYFCQQYSSYPWTFGGGTKVEIKR | 0 | 0 | 0 | 0 | -1 | 1 | > 30 | 61.4 | 57.5 | -2 | 0 | -2
3 | Ab21 (antibody, human IgG1, kappa, V domains shown, humanized from Ab6; G1; also called Ab1 HC.1a and Ab1 LC.2a) VH: EVQLVQSGAEVKKPGSSVKVSCKASGYTFTTYWMHWVRQAPGQGLEWIGEIDPSDSYSNYNQKFKDRATLTVDKSTSTAYMELSSLRSEDTAVYYCARNGGLGPAWFSYWGQGTLVTVSS VL: EIVMTQSPATLSVSPGERATLSCKASQYVGTAVAWYQQKPGQSPRLLIYSASNRYTGVPARFSDSGSGTEFTLTISSLQSEDFAVYFCQQYSSYPWTFGGGTKVEIKR | 0 | -1 | -1 | 1 | -1 | 0 | > 30 | 72.8 | 53.8 | -2 | 0 | -2
